Test results reported in patent KR20180136327A (dated 2018).

Biological target: T1, Endothelin receptor type A (ET A) on cells (human, UniProt P25101 21-427)
T1 chain: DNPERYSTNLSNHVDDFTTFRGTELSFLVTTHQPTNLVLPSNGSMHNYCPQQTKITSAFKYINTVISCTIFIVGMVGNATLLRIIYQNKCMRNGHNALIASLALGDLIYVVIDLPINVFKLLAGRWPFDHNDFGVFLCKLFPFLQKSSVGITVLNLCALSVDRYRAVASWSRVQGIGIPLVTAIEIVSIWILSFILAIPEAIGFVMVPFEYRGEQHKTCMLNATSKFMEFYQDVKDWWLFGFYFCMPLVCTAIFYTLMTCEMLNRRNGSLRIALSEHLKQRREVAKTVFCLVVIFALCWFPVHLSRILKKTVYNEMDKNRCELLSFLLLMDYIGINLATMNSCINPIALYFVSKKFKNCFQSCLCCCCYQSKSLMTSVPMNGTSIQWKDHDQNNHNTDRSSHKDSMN
Experiment: cell-based or functional assay

- K i; inhibition of signalling induced by 10 nM ET-1 (cytosolic Ca2+, Fura-2-AM 340/380 nm ratio) in ET A expressed CHO-K1 stable cell line: 56 nM
- K i; inhibition of signalling induced by 10 nM ET-1 (cytosolic Ca2+, Fura-2-AM 340/380 nm ratio) in HT-29 colon cancer cells: 51 nM
B1: 발굴항체 (anti-ET A human antibody, VH SEQ ID NO 12 / VL SEQ ID NO 13) fused to Cκ, scAb format (scFv, V domains shown)
VH: EVQLVESGAEVRKPGASVKVSCKASGYTFTSSDINWIRQATGQGLEWMGYMNPKNGNTDYAQKFQGRISMTRDSSISTAYMELSSLRSEDTAVYYCAKDRYGSGTYGFGMDVWGPGTLVTVS
VL: DIVMTQSPSAMSASVGDRVSITCRASQGINNYLAWFQQKPGKVPKRLMDVGSILQSGIPSRFRGRGSGTQFTLTISSLQAEDSGTYFCLQHNTYPLTFGPGTKVEIKR
